Data as given in patent US20250076311A1 (Chugai, published 2025).
Residue numbers refer to the chain shown, from its start.

T1: soluble mouse FcγRII, His-tagged (mouse, UniProt P08101 30-210, limits assumed)
T1 construct: Captured on the chip through an anti-His antibody
T1 sequence (looked up): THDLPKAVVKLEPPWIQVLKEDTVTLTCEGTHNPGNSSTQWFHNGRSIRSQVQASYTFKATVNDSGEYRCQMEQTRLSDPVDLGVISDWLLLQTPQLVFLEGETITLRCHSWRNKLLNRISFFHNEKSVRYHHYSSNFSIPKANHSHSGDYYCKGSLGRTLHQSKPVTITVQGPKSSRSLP

T2: human FcγRIIb constitutively expressed on MDCK cells (human, UniProt P31994 43-310)
T2 sequence (looked up): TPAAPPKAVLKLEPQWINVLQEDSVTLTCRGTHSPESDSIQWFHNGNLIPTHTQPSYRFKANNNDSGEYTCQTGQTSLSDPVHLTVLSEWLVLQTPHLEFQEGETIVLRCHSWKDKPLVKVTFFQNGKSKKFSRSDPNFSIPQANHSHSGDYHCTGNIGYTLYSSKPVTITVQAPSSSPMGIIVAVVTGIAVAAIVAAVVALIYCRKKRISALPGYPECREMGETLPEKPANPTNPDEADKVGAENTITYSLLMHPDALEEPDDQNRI

B1: M103205H795-P1549m/M103202L889-SK1 (antibody, human IgG1, kappa, name in EU numbering)
heavy: QVTLKESGPVLVKPTETLTLTCTVSGIDLSHDDISWVRQAPGKGLEWVGIISYAGSTYYASWAKGRLTISKDTSKNQVVLTMTNMDPVDTATYYCARGVPAYSHGGDLWGQGTLVTVSSASTKGPSVFPLAPSSKSTSGGTAALGCLVKDYFPEPVTVSWNSGALTSGVHTFPAVLQSSGLYSLSSVVTVPSSSLGTQTYICNVNHKPSNTKVDKKVEPKSCDKTHTCPPCPAPELLGGPSVFLFPPKPKDTLMISRTPEVTCVVVDVSHEDPEVKFNWYVDGVEVHNAKTKPREEQYNSTYRVVSVLTVLHRDWLNGKEYKCKVSNKALPAPIEKTISKAKGQPREPQVYTLPPSREEMTKNQVSLTCLVKGFYPSDIAVEWESNRQPENNYKTTPPVLDSDRSFFLYSKLTVDKSRWQQGNVFSCSVMHEALHNHYTQKSLSLSP
light: DIVMTQSPATLSLSPGERATLSCTSSQSVYHANWLSWFQQKPGQPPKLLIYWASTLAYGVPSRFSGSGSGTDFTLTISSLQPEDAATYYCAGGYGGGRYAFGQGTKVEIKRTVAAPSVFIFPPSDEQLKSGTASVVCLLNNFYPREAKVQWKVDNALQSGNSQESVTEQDSKDSTYSLSSTLTLSKADYEKHKVYACEVTHQGLSSPVTKSFNRGEC
notes: copies: 2 + 2
B2: M103205H795-P1550m/M103202L889-SK1 (antibody, human IgG1, kappa, name in EU numbering)
heavy: B1 heavy with R387G, E390R, D403R, R404G
light: B1 light
notes: copies: 2 + 2
B3: M103205H795-P1551m/M103202L889-SK1 (antibody, human IgG1, kappa, name in EU numbering)
heavy: B1 heavy with R387G, E390R
light: B1 light
notes: copies: 2 + 2
B4: M103205H795-P1552m/M103202L889-SK1 (antibody, human IgG1, kappa, name in EU numbering)
heavy: B1 heavy with R313Q, D403R, R404G, D415K
light: B1 light
notes: copies: 2 + 2
B5: M103205H795-P1553m/M103202L889-SK1 (antibody, human IgG1, kappa, name in EU numbering)
heavy: B1 heavy with R313Q, D415K
light: B1 light
notes: copies: 2 + 2
B6: M103205H795-P1555m/M103202L889-SK1 (antibody, human IgG1, kappa, name in EU numbering)
heavy: B1 heavy with R313Q, R387G, E390R, D415K
light: B1 light
notes: copies: 2 + 2
B7: M103205H795-SG141/M103202L889-SK1 (antibody, human IgG1, kappa, name in EU numbering)
heavy: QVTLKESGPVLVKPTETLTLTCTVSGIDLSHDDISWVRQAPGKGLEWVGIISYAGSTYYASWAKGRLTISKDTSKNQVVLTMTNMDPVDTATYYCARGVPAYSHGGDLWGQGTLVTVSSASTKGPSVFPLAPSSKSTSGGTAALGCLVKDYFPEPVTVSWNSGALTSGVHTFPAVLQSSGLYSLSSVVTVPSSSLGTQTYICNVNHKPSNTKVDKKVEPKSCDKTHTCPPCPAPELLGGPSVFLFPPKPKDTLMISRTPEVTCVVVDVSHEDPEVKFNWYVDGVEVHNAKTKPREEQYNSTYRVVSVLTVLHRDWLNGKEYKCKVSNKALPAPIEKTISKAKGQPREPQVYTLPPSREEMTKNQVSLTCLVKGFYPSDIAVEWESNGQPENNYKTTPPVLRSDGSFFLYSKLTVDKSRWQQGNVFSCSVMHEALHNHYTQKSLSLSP
light: B1 light
notes: copies: 2 + 2
B8: MS1032LO06-P1378m (antibody, human IgG1, kappa, name in EU numbering)
heavy: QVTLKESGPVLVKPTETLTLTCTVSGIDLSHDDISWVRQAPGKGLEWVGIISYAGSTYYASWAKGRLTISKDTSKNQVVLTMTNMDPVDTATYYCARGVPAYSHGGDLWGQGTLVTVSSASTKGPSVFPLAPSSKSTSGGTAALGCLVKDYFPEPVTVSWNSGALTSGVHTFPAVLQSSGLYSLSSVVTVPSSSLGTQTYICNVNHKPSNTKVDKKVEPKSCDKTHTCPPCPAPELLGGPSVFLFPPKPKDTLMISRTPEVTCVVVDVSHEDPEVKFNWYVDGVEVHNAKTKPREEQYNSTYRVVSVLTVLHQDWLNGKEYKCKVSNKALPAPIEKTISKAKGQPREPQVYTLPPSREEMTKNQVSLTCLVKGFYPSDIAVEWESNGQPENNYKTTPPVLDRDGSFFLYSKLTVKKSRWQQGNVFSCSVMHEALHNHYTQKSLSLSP
light: B1 light
notes: also called M103205H795-P1378m; copies: 2 + 2
B9: MS1032LO06-P1383m (antibody, human IgG1, kappa, name in EU numbering)
heavy: B1 heavy with R387G, S402R, R404G, D415K
light: B1 light
notes: also called M103205H795-P1383m; copies: 2 + 2
B10: MS1032LO06-P1499m (antibody, human IgG1, kappa, name in EU numbering)
heavy: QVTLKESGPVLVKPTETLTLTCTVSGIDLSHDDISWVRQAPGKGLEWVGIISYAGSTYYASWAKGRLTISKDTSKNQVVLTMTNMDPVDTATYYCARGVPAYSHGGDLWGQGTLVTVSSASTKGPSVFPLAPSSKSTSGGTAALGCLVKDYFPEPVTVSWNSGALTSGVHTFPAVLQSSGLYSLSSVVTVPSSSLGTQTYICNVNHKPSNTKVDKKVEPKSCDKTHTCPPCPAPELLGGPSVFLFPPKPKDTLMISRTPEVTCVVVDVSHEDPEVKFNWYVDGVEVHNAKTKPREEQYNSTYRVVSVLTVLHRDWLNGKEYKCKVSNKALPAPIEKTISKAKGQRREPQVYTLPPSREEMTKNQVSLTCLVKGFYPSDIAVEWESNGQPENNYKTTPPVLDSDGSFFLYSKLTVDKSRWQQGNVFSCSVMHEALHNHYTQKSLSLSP
light: B1 light
notes: also called M103205H795-P1499m
B11: M103205H795-MY174/M103202L889-SK1 (antibody, human IgG1, kappa, name in EU numbering)
heavy: B1 heavy with G238N, H270E, R313Q, R387G, P398I, R404G
light: B1 light
notes: EU numbering
B12: M103205H795-MY199/M103202L889-SK1 (antibody, human IgG1, kappa, name in EU numbering)
heavy: B1 heavy with G238N, H270E, R313Q, A332K, R387G, R404G
light: B1 light
notes: substitutions in EU numbering, introduced into M103205H795-SG1
B13: M103205H795-MY206/M103202L889-SK1 (antibody, human IgG1, kappa, name in EU numbering)
heavy: B1 heavy with G238N, S241V, H270D, Q297L, R313Q, A332K, R387G, R404G
light: B1 light
notes: as for B12
B14: M103205H795-MY518/M103202L889-SK1 (antibody)
heavy: B1 heavy with L237W, G238N, H270D, Q297L, R313Q, K328T, A332K, R387G, R404G
light: B1 light
B15: MS_M103205H795-SG1/M103202L889-SK1 (antibody, human IgG1, kappa)
heavy: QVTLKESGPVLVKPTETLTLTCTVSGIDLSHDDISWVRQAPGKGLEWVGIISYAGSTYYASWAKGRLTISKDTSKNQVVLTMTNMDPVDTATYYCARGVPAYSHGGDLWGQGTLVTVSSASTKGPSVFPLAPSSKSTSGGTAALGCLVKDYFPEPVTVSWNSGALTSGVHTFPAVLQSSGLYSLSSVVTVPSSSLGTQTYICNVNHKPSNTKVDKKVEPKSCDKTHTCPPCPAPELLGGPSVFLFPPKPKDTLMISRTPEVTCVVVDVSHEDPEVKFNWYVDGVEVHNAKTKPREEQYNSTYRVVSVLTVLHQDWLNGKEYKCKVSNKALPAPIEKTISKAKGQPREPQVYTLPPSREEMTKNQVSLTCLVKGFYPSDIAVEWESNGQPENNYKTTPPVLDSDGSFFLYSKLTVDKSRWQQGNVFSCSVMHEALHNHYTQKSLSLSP
light: B1 light
notes: parent antibody of the Fc variants; human heavy chain constant region SG1; also called MS1032LO06-SG1
B16: M103205H795-MY350/M103202L889-SK1 (antibody, human IgG1, kappa, name in EU numbering)
heavy: B1 heavy with L237W, G238N, H270E, R313Q, A332K, R387G, P398M, R404G
light: B1 light
notes: Fc variant of MS1032LO06-SG1; positions in EU numbering
B17: M103205H795-MY518/M103202L889-SK1 (antibody)
heavy: B1 heavy with L237W, G238N, H270D, Q297L, R313Q, K328T, A332K, R387G, R404G
light: B1 light
notes: Fc variant of MS1032LO06-SG1; EU numbering

What follows are binders tested against T1, soluble mouse FcγRII, His-tagged (assay: SPR, mouse FcγRII captured via His-tag, antigen-antibody complex injected, pH 7.4, 25 C).
Procedure: Regarding the produced Fc region variant-containing antibodies, binding assays between soluble mouse FcγRII and antigen-antibody complexes were performed using BIACORE® T200 (GE Healthcare). Soluble mouse FcγRII was produced in the form of a His-tagged molecule by a method known to those skilled in the art. An appropriate amount of an anti-His antibody was fixed onto Sensor chip CM5 (GE Healthcare) by the amine coupling method using a His capture kit (GE Healthcare) to capture mouse FcγRII. Next, an antibody-antigen complex and a running buffer (as a reference solution) were injected, and interaction was allowed to take place with the mouse FcγRII captured onto the sensor chip. 20 mM N-(2-Acetamido)-2-aminoethanesulfonic acid, 150 mM NaCl, 1.2 mM CaCl₂), and 0.05% (w/v) TWEEN® 20 at pH7.4 was used as the running buffer, and the respective buffer was also used to dilute the soluble mouse FcγRII. To regenerate the sensor chip, 10 mM glycine-HCl at pH1.5 was used. All measurements were carried out at 25° C. […] To calculate the parameters, the BIACORE® T100 Evaluation Software (GE Healthcare) was used.
B1 was tested, and the “biacore IC binding (relative, SG1 = 1.00)” value was 1.22 relative to SG1.
In the case of B2, the “biacore IC binding (relative, SG1 = 1.00)” value is reported as 1.63 relative to SG1.
For B3, the “biacore IC binding (relative, SG1 = 1.00)” value was 1.33 relative to SG1.
In the case of B4, the “biacore IC binding (relative, SG1 = 1.00)” value is reported as 2.19 relative to SG1.
For B5, the “biacore IC binding (relative, SG1 = 1.00)” value was 1.47 relative to SG1.
B6 was tested, and the “biacore IC binding (relative, SG1 = 1.00)” value was 2.01 relative to SG1.
B7 was tested, and the “biacore IC binding (relative, SG1 = 1.00)” value was 1.64 relative to SG1.
For B8, the “biacore IC binding (relative, SG1 = 1.00)” value was 1.23 relative to SG1.
For B9, the “biacore IC binding (relative, SG1 = 1.00)” value was 1.41 relative to SG1.
B10 was tested, and the “biacore IC binding (relative, SG1 = 1.00)” value was 1.98 relative to SG1.

The binders below were run against T3, cynomolgus monkey FcγRIIIaS extracellular domain with C-terminal His-tag (cynomolgus monkey, UniProt A3RFZ7 21-206 (rhesus entry)) (assay: SPR Biacore, antibody captured, FcgR analyte).
T3 construct: also called cyno FcgRIIIaS; cynoFcγRIIIaS; not shown: His-tag added to C-terminus
Procedure: (§1) The kinetic analysis of interactions between these antibodies and FcγR was carried out using BIACORE® T200 or BIACORE® 4000 (GE Healthcare). HBS-EP+ (GE Healthcare) was used as the running buffer, and the measurement temperature was set to 25° C. […] After the measurement, the antibody captured on the chip was washed off by allowing reaction with 10 mM glycine-HCl, pH1.5 and 25 mM NaOH so that the chip was regenerated and used repeatedly. The sensorgrams obtained as measurement results were analyzed by the 1:1 Langmuir binding model using the BIACORE® Evaluation Software to calculate the binding rate constant ka (L/mol/s) and dissociation rate constant kd (1/s), and the dissociation constant KD (mol/L) was calculated from these values. […] Regarding such interactions, KD values were calculated using the following 1:1 binding model described in BIACORE® T100 Software Handbook BR1006-48 Edition AE.
Target sequence in this assay (A3RFZ7 21-206): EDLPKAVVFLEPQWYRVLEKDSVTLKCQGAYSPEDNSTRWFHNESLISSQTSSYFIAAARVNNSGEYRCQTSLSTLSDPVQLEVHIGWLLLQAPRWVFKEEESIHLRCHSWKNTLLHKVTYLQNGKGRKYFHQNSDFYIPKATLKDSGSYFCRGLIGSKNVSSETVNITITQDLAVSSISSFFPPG
In the case of B11, the “KD fold (SG1 = 1)” value is reported as 0.14 fold and the Kd is reported as 2500 nM.
With B12 the “KD fold (SG1 = 1)” value was 0.09 fold.
B13 was tested, and the “KD fold (SG1 = 1)” value was 0.11 fold.
For B14, the “KD fold (SG1 = 1)” value was 0.09 fold.

What follows are binders tested against T2, human FcγRIIb constitutively expressed … (assay: cell-based or functional assay).
B1 was tested, and the “celluar uptake (labelled human latent myostatin taken up as antigen-antibody complex)” value (“celluar uptake” for short) was 2.03 relative to SG1 = 1.00.
With B2 the “celluar uptake” value was 6.43 relative to SG1 = 1.00.
For B3, the “celluar uptake” value was 2.91 relative to SG1 = 1.00.
For B4, the “celluar uptake” value was 4.44 relative to SG1 = 1.00.
B5 was tested, and the “celluar uptake” value was 2.86 relative to SG1 = 1.00.
In the case of B6, the “celluar uptake” value is reported as 3.71 relative to SG1 = 1.00.
B7 was tested, and the “celluar uptake” value was 4.42 relative to SG1 = 1.00.
With B8 the “celluar uptake” value was 3.86 relative to SG1 = 1.00.
In the case of B9, the “celluar uptake” value is reported as 5.68 relative to SG1 = 1.00.
In the case of B10, the “celluar uptake” value is reported as 3.61 relative to SG1 = 1.00.

What follows are binders tested against T4, cynomolgus monkey FcγRIIIaS extracellular domain with C-terminal His-tag (cynomolgus monkey, UniProt A3RFZ7 21-206 (rhesus entry)) (assay: SPR (BIACORE), antibody captured, FcgR analyte).
T4 construct: also called cyno FcgRIIIaS; cynoFcγRIIIaS; not shown: His-tag added to the C-terminus
Procedure: as §1
Target sequence in this assay (A3RFZ7 21-206): as above
For B15, the Kd was 0.56 µM.
With B16 the Kd was 6.6 µM.
B17 showed a Kd of 4.2 µM.
